# Reference: patent publication US20240277861A1, “ANTI-HEPATITIS B VIRUS AGENT TARGETING HOST FACTOR LIPG” (PUROTECH BIO, INC., priority 2021, published 2024)
# T1: full-length form of LIPG (500 amino acids) (Homo sapiens, UniProt Q9Y5X9)
# T1 construct: A pull-down assay was performed on the full-length form of LIPG (500 amino acids); made in house
# T1 sequence (Q9Y5X9 21-500): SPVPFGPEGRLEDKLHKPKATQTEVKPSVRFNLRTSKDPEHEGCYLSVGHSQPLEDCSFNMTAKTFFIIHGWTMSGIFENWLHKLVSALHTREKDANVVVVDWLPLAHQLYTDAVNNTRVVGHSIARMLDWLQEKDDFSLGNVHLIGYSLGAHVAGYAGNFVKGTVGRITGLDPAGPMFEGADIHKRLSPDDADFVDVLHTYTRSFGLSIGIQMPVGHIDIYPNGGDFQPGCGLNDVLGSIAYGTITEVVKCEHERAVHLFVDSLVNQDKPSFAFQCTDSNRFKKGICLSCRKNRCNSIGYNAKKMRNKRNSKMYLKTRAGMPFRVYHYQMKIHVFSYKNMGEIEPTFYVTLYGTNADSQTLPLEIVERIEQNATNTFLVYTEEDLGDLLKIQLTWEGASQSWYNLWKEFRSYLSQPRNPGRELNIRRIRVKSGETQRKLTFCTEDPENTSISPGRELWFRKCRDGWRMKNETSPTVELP
# B1: 10M-LN4SN: fusion of ASGR3-10M scFv, cleavage sequence, LIPH4-N4BP1b, S28, nuclear localization signal (SEQ ID NO: 134) (protein)
# chain: RVRRSNCRINTFRDYKDDDDKHHHHHHHPFVIGAGVLGALGTGIGGITTSTQFYYKPAAKRVKLD
# modifications: cleavage sequence + LIPH4-N4BP1b + Flag-tag + His-tag + S28 + nuclear localization signal
# B2: 10M-LN4N: fusion of ASGR3-10M scFv, cleavage sequence, LIPH4-N4BP1a, S28, nuclear localization signal (SEQ ID NO: 133) (protein)
# chain: RVRRSNCRINTFRTVPIEQKDYKDDDDKHHHHHHHPFVIGAGVLGALGTGIGGITTSTQFYYKPAAKRVKLD
# modifications: cleavage sequence + LIPH4-N4BP1a + Flag-tag + His-tag + S28 + nuclear localization signal
# B3: 10M-LLNTSN: fusion of ASGR3-10M scFv, cleavage sequence, LIPH4-LNTNBs, S28, nuclear localization signal (SEQ ID NO: 131) (protein)
# chain: RVRRLNCRHNTAGDYKDDDDKHHHHHHHPFVIGAGVLGALGTGIGGITTSTQFYYKPAAKRVKLD
# modifications: cleavage sequence + LIPH4-NTNBs + Flag-tag + His-tag + S28 + nuclear localization signal
# B4: 10M-LLNTSN-S39: fusion of ASGR3-10M scFv, cleavage sequence, LIPH4-LNTNBs, S39, nuclear localization signal (SEQ ID NO: 132) (protein)
# chain: RVRRLNCRHNTAGDYKDDDDKHHHHHHHPFVIGAGVLGALGTGIGGITTSTQFYYKLSQELNGDMERPAAKRVKLD
# modifications: cleavage sequence + LIPH4-NTNBs + Flag-tag + His-tag + S39 + nuclear localization signal
# System: HBV
# Experiment: Anti-HBV activities of LIPG-binding peptides in PXB cells
# Format: cell-based
# Settings: HBV-infected PXB cells
# Procedure: (§1) An infection source medium was prepared by adding the HBV-infected chimeric mouse serum (PhoenixBio), DMSO, and a PEG 8000 solution to the PXB cell culture medium (PhoenixBio) at final concentrations of 5 genome equivalents/cell, 2%, and 4%, respectively. Various synthesized peptides were diluted to different concentrations in this medium, and the resulting media were added individually to PXB cells (PhoenixBio). After the cells were left to stand in a 5% CO2 incubator at 37° C. for 20 to 28 hours, the medium was removed and the wells were washed once with PBS(−). DMSO and one of the various synthesized peptides were added to the PXB cell culture medium at a final concentration of 2% and different concentrations, respectively, and the resulting media were added individually to the PXB cells to perform medium exchange. This medium exchange was performed at 1, 5, and 9 days post infection and samples were collected at 14 days post infection.
# (§2) SMI TEST™ M EX-R&D (Medical & Biological Laboratories) was used to extract DNA from the samples. The extracted DNA was used as a template for quantitative PCR of HBV-DNA. For cccDNA detection, the extracted DNA was treated with T5 exonuclease (New England Biolabs), and the resulting DNA was used as a template for quantitative PCR. The T5 exonuclease treatment was performed at 37° C. for 30 minutes, and the DNase was later inactivated by heating at 80° C. for 15 minutes. The following primer set was used for detection.
# PXB cells, fresh human liver cells isolated from PXB mice (human hepatocyte chimeric mice), are human liver cells that maintain human liver functions at high levels and allow persistent infection with hepatitis B virus (HBV). Therefore, PXB cells were used to evaluate the anti-HBV activities of LIPG-binding peptides. LIPG-binding peptides were chemically synthesized because they were added extracellularly (Eurofins Genomics K.K.). Clones that had shown excellent results in the studies of Examples 10 and 1 (KIgk-LIPH4-23, KIgk-LIPH4-74, KIgk-LIPH4-15, KIgk-L1l 14-2. KIgk-LIPH14-14. KIgk-LIPH4-87) were selected for chemical synthesis of the peptides. […] Therefore, LIPH4-NTNA and LIPH4-NTNB, which share a common sequence with netrins and consist of 16 amino acids, were also chemically synthesized. The chemically synthesized peptides were dissolved in DMSO for use in HBV assays in PXB cells.
# Next, the anti-HBV activity of full-length Netrin-1 was examined in PXB cells. A full-length human recombinant Netrin-1 protein consisting of 604 amino acid residues (molecular weight: 67.5 kDa, SEQ ID NO: 28) was purchased from R&D Systems. United States. A shRNA with the sequence […]ctcgagc[…] TTTTTTG (single underline: terminal sequences for cloning, lowercase letters: hairpin loop sequence) (SEQ ID NO: 64) was used to knock down the Netrin-1 gene.
row,Molecule,anti-HBV activity (effect to reduce HBV DNA and cccDNA copy numbers)
1,RKSGGVCLNCRHNTAG (LIPH4-NTNA),as strongly as the polypeptides (5) to (10)
2,LNCRHNTAGRHCHYCK (LIPH4-NTNB),high anti-HBV activity

# Same assay, conditions: HBV-infected PXB cells; listed as polypeptide (12)
row,Molecule,anti-HBV activity (effect to reduce HBV DNA and cccDNA copy numbers)
1,LNCRHNTAGRHCHYCK (LIPH4-NTNB),as strongly as the polypeptides (5) to (10)

# Same assay, conditions: PXB cells, Netrin-1 gene knocked down, vs control
Molecule,HBV-DNA copy number,cccDNA copy number
Netrin-1 shRNA: shRNA of SEQ ID NO: 64 used to knock down the Netrin-1 gene (guide CCGGGACTGCGATTCCTACTGCAAGCTCGAGCTTGCAGTAGGAATCGCAGTCTTTTTTG) [reference compound],remarkably increased,remarkably increased

# System: HBV
# Experiment: Anti-HBV activities of LIPG-binding peptides delivered into PXB cells-2 (scFv fusions, 4% PEG)
# Format: cell-based
# Settings: presence of 4% PEG
# Procedure: as §1, §2
# The anti-HBV activities of LIPG-binding peptides delivered into cells were evaluated using PXB cells and anti-ASGR single-chain antibody-LIPG-binding peptide fusions. The anti-HBV activity was evaluated in the presence of 4% PEG. The evaluation of the anti-HBV effect in the presence of PEG is more stringent than under the conditions in Example 18 without the presence of PEG because the HBV-DNA and cccDNA copy numbers are increased in the presence of PEG. Of the fusions prepared in Example 16, 10M-LN4SN, 10M-LN4N, 10M-LLNTSN, and 10M-LLNTSN-S39 were used. According to the timeline shown in FIG. 42A, the anti-HBV activities of the fusions were evaluated using the methods described in “(10-5) Infection experiment using PXB cells” and “(10-6) Quantification of HBV-DNA and cccDNA”.
Molecule,HBV-DNA copy number,cccDNA copy number
B1,remarkably reduced,remarkably reduced
B2,remarkably reduced,remarkably reduced
B3,remarkably reduced,remarkably reduced
B4,remarkably reduced,remarkably reduced

# Target: T1, full-length form of LIPG (500 amino acids)
# Experiment: Pull-down assay of LIPH4 peptides against full-length LIPG
# Format: binding
# Settings: culture supernatant of transfected 293T cells, compared with no bait
# Procedure: Human embryonic kidney 293T cells were cultured in DMEM (1.0 g/l glucose) with L-Gln and Sodium Pyruvate, liquid (Nacalai) supplemented with 10% FCS ([…]). Plating was performed in a 1:2 ratio on 6 cm dishes 24 hours before transfection. Lipofectamine 2000 in a volume of 20 μl was added to 500 μl of Opti-MEM 1 and allowed to stand for 5 minutes at room temperature, and the resulting mixture was gently added to a 6 cm dish containing a mixture of 500 μl of Opti-MEM 1 and 8 μg of a plasmid DNA. The resulting mixture was allowed to stand for 20 minutes at room temperature, and then added to a 6 cm dish containing 293T cells, and the cells were cultured at 37° C. in 5% CO2 for 4 to 6 day.
# Resin (Streptavidin MagneSphere Paramagnetic Particles) (Promega) was washed using the MagneSphere Technology Magnetic Separation Stand (tweleve-position). The resin in a volume of 40 μl was added to each 1.5 ml tube, and after removal of the solution, washed three times with 1 ml of PBS. The resin was transferred to new tubes and mixed with 0.5 nmol (109 μl) of LIPG-BioFLAGHis or with 109 μl of PBS as a no bait control, and the resulting mixtures were agitated at 4° C. for 1 hour by rotation on a mini-disk rotor (BIO CRAFT) to allow binding. After removal of the solution, the resin was washed three times with 1 ml of TBST (containing 0.05% Tween 20). The resin was transferred to new tubes, blocked with 1 ml of ELISA BSA buffer (TBS, 0.05%, Tween 20, 1% BSA. Nacalai Tesque, Inc.) at 4° C. for 1 hour, and then washed three times with 1 ml of ELISA BSA buffer. The resin was transferred to new tubes, and 1000 μl of the culture supernatant containing expressed KIgk-LIPH4 was mixed with […] of the resin treated with LIPG-BioFLAGHis or without the bait, and the resulting mixtures were agitated at 4° C. for 1 hour and 30 minutes by rotation on a mini-disk rotor (BIO CRAFT) to allow binding. After removal of the solution, the resin was washed three times with […] of TBST (Tween 20, 0.1%), and the recovered resin was used for Western blotting.
# Each resin was mixed with water and LDS sample buffer (4×), 0.2 mM DTT, heated at 70° C. for 10 minutes, and then subjected to SDS-PAGE. SDS-PAGE was performed using 4-12% Bis-Tris gel and NuPAGE MES-SDS electrophoresis buffer (Invitrogen) at 200 V and 400 mA for 35 minutes. After electrophoresis, transfer was performed using Mini Format, 0.2-μm PVDF, Single-application (BIO-RAD) Trans-Blot Turbo. The membrane was blocked with a Blocking One Buffer: TBST (1:9) solution and reacted with an anti-Flag-HRP (Sigma: A8592) diluted 2:3000 in a Blocking One Buffer: TBST (1:9) solution. Detection was performed using ECL (Enhanced ChemiLuminescence) on a ChemiDoc (BIO-RAD).
# A pull-down assay was performed on the full-length form of LIPG (500 amino acids) with LIPH4 peptides (FIG. 16).
row,Molecule,binding to LIPG in pull-down assay
1,LCECRDVLSCYYITDT (LIPH4-90) [KIgk-LIPH4-90],positive
2,LNVGYVFYP (LIPH4-15) [KIgk-LIPH4-15],positive
3,RCRQSWNTM (LIPH4-14) [KIgk-LIPH4-14],positive
4,LVPWLRYAY (LIPH4-12) [KIgk-LIPH4-12],positive
5,GADLRRGCC (LIPH4-87) [KIgk-LIPH4-87],positive
6,IRNVNHSDH (LIPH4-74) [KIgk-LIPH4-74],positive
7,SLYTGFRAH (LIPH4-2) [KIgk-LIPH4-2],positive
8,CPCVNGATRHRPTSLC (LIPH4-16) [KIgk-LIPH4-16],positive
